{"source": "patent US5840867", "key": {"thrombin": {"target": "thrombin (Homo sapiens?) (UniProt P00734+P00734)", "experiment": "filter"}, "[1]": {"target": "bradykinin (peptide, thiopropyl-derivatised on Sepharose for selection) (UniProt P01042)", "sequence (P01042 whole entry, looked up, tested part not stated)": "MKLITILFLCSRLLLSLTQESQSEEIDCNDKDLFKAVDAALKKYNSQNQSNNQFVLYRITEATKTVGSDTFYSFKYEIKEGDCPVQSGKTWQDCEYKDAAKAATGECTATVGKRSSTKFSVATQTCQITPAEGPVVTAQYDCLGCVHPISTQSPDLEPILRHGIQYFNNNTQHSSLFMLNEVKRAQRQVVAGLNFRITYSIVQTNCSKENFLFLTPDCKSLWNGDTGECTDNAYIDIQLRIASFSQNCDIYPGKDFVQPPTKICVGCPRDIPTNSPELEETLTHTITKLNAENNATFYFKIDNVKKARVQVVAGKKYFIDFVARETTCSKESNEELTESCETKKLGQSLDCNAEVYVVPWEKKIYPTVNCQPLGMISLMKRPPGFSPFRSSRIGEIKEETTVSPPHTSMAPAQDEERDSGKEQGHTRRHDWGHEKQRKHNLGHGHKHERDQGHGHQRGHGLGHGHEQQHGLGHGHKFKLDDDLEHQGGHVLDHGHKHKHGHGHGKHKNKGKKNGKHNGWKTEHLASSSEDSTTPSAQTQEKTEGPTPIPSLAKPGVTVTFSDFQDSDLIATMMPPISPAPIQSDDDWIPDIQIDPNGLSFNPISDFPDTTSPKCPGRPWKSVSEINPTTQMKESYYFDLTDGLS", "details": "method not stated, cited from earlier work"}, "ovalbumin": {"target": "T1, ovalbumin (UniProt P01012)", "T1 sequence": "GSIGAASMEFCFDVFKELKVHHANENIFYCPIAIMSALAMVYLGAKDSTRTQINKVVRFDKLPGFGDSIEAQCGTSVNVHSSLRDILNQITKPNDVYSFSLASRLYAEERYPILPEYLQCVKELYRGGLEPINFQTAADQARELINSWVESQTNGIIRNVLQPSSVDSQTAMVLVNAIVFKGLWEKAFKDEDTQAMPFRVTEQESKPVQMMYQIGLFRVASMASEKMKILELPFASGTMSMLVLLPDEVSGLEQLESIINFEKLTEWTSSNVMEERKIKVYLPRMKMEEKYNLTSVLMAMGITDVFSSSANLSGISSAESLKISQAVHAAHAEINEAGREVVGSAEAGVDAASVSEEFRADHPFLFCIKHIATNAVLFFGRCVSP", "experiment": "filter", "details": "60 pmol ovalbumin; DNA alone 0.07%"}}, "note": "Where two headings read alike, the source gives them in different places.", "data": [{"sequence": "CGTACGGTCGACGCTAGCNNNNNNNNNNNNNNNNNNNNNNNNNNNNNNNNNNNNNNNNNNNNNNNNNNNNNNNNNNNNCACGTGGAGCTCGGATCC [unselected 96-mer pool]", "values": [{"measurement": "binding signal", "setting": "thrombin; unselected DNA, DNA alone 0.08%", "value": 0.06, "unit": "% DNA bound"}, {"measurement": "Kd", "setting": "[1]; unselected DNA", "value": "> 1000", "unit": "µM"}]}, {"sequence": "CGTACGGTCGACGCTAGCNNNNNNNNNNNNNNNNNNNNNNNNNNNNNNNNNNNNNNNNNNNNNNNNNNNNNNNNNNNNCACGTGGAGCTCGGATCC [Round 5 bradykinin aptamer pool]", "values": [{"measurement": "Kd", "setting": "[1]; pool", "value": 50, "unit": "µM"}]}, {"sequence": "CGTACGGTCGACGCTAGCNNNNNNNNNNNNNNNNNNNNNNNNNNNNNNNNNNNNNNNNNNNNNNNNNNNNNNNNNNNNCACGTGGAGCTCGGATCC [Round 5 thrombin aptamer pool (96-mer)]", "values": [{"measurement": "binding signal", "setting": "ovalbumin", "value": 0.05, "unit": "% DNA bound"}, {"measurement": "binding signal", "setting": "thrombin; 60 pmol thrombin, 3.5 pmol DNA in 200 uL selection buffer, RT 1 h, DNA alone 0.07%", "value": 20.4, "unit": "% DNA bound"}]}]}
